US20140161790A1 (Xencor, published 2014)
Residue numbers refer to the chain shown, from its start. Names may count otherwise.

B1: bevacizumab IgG1 Fc variant V259I/V308F/M428L (antibody)
heavy: EVQLVESGGGLVQPGGSLRLSCAASGYTFTNYGMNWVRQAPGKGLEWVGWINTYTGEPTYAADFKRRFTFSLDTSKSTAYLQMNSLRAEDTAVYYCAKYPHYYGSSHWYFDVWGQGTLVTVSSASTKGPSVFPLAPSSKSTSGGTAALGCLVKDYFPEPVTVSWNSGALTSGVHTFPAVLQSSGLYSLSSVVTVPSSSLGTQTYICNVNHKPSNTKVDKKVEPKSCDKTHTCPPCPAPELLGGPSVFLFPPKPKDTLMISRTPEITCVVVDVSHEDPEVKFNWYVDGVEVHNAKTKPREEQYNSTYRVVSVLTFLHQDWLNGKEYKCKVSNKALPAPIEKTISKAKGQPREPQVYTLPPSREEMTKNQVSLTCLVKGFYPSDIAVEWESNGQPENNYKTTPPVLDSDGSFFLYSKLTVDKSRWQQGNVFSCSVLHEALHNHYTQKSLSLSPGK
light: not shown
notes: also called IFL; copies: 2 + 2
B2: bevacizumab IgG1 Fc variant V259I/V308F (antibody)
heavy: not shown
light: not shown
notes: also called IF; copies: 2 + 2
B3: bevacizumab IgG1 Fc variant M252Y/S254T/T256E (antibody)
heavy: B1 heavy with M258Y, S260T, T262E, I265V, F314V, L434M
light: not shown
notes: also called YTE; copies: 2 + 2
B4: bevacizumab IgG1 Fc variant N434S (antibody)
heavy: not shown
light: not shown
notes: copies: 2 + 2
B5: bevacizumab IgG1 Fc variant M428L/N434S (antibody)
heavy: not shown
light: not shown
notes: also called LS; LS bevacizumab variant; copies: 2 + 2

These binders were tested against T1, human FcRn (heterodimer of alpha chain and beta2-microglobulin) (human, UniProt P55899 24-297; P61769 21-119, limits assumed) (assay: SPR (Biacore 3000), antibody captured on immobilized VEGF, human FcRn as analyte, pH 6.0, 1:1 Langmuir fit).
T1 construct: Co-expressed in HEK293T cells; also called hFcRn; human neonatal Fc receptor
T1 sequence (P55899 24-297 limits assumed, chain 1 of 2): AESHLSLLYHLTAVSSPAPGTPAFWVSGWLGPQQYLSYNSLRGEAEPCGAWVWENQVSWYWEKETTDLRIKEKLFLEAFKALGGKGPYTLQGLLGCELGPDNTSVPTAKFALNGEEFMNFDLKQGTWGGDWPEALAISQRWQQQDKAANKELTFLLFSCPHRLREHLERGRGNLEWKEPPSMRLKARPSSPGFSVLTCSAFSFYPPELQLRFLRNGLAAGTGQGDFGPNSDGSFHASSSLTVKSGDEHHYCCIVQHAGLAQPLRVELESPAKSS
T1 sequence (P61769 21-119 limits assumed, chain 2 of 2): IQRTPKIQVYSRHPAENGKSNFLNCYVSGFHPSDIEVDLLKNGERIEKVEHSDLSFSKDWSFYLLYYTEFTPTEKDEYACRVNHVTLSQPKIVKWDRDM

Binder | Kd [nM] | koff [s⁻¹] | kon [M⁻¹ s⁻¹]
B1 | 124 | 0.0238 | 192000
B2 | 424 | 0.0752 | 178000
B3 | 340 | 0.0549 | 162000

The binders below were run against T1, human FcRn (heterodimer of alpha chain …) (assay: SPR, FcRn coupled directly to CM5 chip, antibody analyte at 200 nM bound at pH 6.0, dissociation at pH 7.4; avid format, relative values only).

Binder | koff [s⁻¹]
B4 | 0.29
B1 | 0.13
B2 | 0.6
B5 | 0.33
B3 | 0.32

These binders were tested against T1, human FcRn (heterodimer of alpha chain …) (assay: SPR as above, pH 6.0; fold KD against native IgG1).

Binder | Fold KD [fold]
B1 | 19.8
B2 | 5.8
B3 | 7.24
